This assay deals with T1, DPY-22 PQ-rich domain (C. elegans, UniProt Q20497 2142-3498, limits assumed).
T1 construct: domain: PQ-rich domain; Expressed in yeast from a Clontech two-hybrid bait or prey plasmid, so fused to a Gal4 BD or AD; also called C-terminal PQ-rich domain of DPY-22; MED12/DPY22
T1 sequence (looked up): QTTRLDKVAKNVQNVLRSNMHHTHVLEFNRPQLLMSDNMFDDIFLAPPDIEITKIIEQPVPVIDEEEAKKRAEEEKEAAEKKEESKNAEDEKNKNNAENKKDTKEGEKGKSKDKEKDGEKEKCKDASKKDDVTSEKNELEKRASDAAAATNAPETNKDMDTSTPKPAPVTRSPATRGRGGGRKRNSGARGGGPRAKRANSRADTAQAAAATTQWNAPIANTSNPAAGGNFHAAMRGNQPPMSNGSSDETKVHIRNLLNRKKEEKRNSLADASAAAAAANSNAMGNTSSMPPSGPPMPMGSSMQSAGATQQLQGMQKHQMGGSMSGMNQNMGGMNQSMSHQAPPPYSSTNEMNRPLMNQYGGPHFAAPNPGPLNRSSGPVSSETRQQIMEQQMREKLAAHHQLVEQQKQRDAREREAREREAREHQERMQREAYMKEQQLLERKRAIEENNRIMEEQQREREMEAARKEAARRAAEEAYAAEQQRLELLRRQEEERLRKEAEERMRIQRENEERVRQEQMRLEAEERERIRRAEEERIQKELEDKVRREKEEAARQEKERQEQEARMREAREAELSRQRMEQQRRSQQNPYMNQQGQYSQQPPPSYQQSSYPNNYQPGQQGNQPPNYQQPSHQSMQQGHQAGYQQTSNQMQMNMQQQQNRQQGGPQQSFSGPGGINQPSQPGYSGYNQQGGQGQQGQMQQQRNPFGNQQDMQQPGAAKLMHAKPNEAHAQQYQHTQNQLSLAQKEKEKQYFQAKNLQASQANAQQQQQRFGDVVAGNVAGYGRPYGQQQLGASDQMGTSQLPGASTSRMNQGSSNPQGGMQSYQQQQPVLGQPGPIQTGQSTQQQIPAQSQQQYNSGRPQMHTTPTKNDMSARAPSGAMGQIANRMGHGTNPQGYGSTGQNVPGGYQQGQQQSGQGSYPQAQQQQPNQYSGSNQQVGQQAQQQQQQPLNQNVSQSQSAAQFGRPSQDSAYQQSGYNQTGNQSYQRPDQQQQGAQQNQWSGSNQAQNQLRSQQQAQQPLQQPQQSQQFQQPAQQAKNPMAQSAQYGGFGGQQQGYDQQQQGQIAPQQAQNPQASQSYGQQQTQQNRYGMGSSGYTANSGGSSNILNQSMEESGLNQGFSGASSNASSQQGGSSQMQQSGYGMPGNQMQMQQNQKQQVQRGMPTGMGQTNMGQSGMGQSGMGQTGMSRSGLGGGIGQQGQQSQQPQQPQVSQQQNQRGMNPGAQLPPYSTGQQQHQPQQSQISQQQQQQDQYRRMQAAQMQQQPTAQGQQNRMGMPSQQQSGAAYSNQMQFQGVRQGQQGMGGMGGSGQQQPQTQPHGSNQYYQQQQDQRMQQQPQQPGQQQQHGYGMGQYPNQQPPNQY
Kind of assay: yeast two-hybrid. As to the method:
The yeast two-hybrid assay was performed following the manufacturer's protocol (Clontech). Briefly, fresh Yeast Gold colonies (<1 week old) were cultured in YPD liquid medium at 30° C. to the O.D.600 of 0.5, harvested, washed, and resuspended in 1.1×TE/LiAc. 100 ng of bait and prey plasmids were mixed with […] of denatured salmon sperm carrier DNA and were transformed into competent yeast cells in the presence of 1×PEG/LiAc. The cell mix was then plated on both -Leu-Trp and -Leu-Trp-His-Ade dropout plates and was allowed to grow and 30° C. for 2-3 days. Single colonies that grew on the double and quadruple dropout plates were resuspended in H2O and respotted to fresh dropout plates, which were grown at 30° C. for 2 days. Images of the respotted plates were captured using a Canon Powershot A590 digital camera (Canon) and processed by Photoshop CS4 software (Adobe).
Two let-19 alleles contain missense mutations, and all five of the dpy-22 alleles contain nonsense mutations that truncate the C-terminal PQ-rich domain (FIG. 3C). In vertebrates, Med12 interacts with transcription factors through the PQ-rich domain to promote gene expression and tissue development (37-41). To determine if Mediator might specifically promote I4 neurogenesis by interacting with bHLH proneural factors, we performed a yeast two-hybrid assay. […]

These results are taken from US20200123499A1 (MIT, published 2020).

B1: HLH-3 (other)
chain: MTASTSSTPSTSTKIPSSSKSSVTKQTKQKRNERERKRVDQVNQGFVLLQERVPKAAGNKAKLSKVETLREAARYIQELQKQLGMSSTSFHNSMPADFPTPEQSPVYPQSVCSMMAQTPSPSYTSPYYPPPQMMSSNQHDMSSHYYQESSSSSASTSGDHHSFYSHTETY
notes: Yeast two-hybrid fusion (Gal4 BD or AD); also called ASCL1/HLH3; C. elegans homolog of Ascl1/Mash1
As to B1, the binding result is listed as “no binding”.
